The record followed here is patent publication US5559213A, “Polyethylene-protein conjugates” (Hoffmann-La Roche Inc., priority 1995, dated 1996).

A word on the IC50: it is the midpoint of a concentration-inhibition curve.

In one data set the test system is D10 cell. The experiment in a line: D10 cell proliferation assay (specific activity of rIL-1 alpha). The class given is cell-based. As to conditions: for Specific Activity: label = apparent molecular weight (kD). The method, then:
Pegylated rIL-1 alpha was purified from the reaction mixture after 60 minutes using hydrophobic exchange chromatography (Bio-Rad; HRLC. MP7 HlC). A linear gradient with decreasing salt concentration from 0.43 to 0.0M (NH4)2 SO4 in 50 mM sodium phosphate pH 7.0 in 20 minutes was used to separate pegylated rIL-1 alpha and unmodified rIL-1 alpha. Aliquots of fractions were evaluated by SDS-PAGE and pooled fractions were assayed for specific activity in a D10 cell proliferation assays by the method described by Kaye et al. [J. Exp. Med. 158:836, (1983)]. Protein concentrations were determined spectrophotometrically at […] using an extinction coefficient of 1.0 for rIL-1 alpha. The specific activity of the rIL-1 alpha is approximately 1.0×10^8 units/mg. The 26 kD pegylated IL-1 alpha conjugate retains bioactivity within 2-3 fold of relative to IL-1 alpha.

For data set [1], the target named is T1, IL-1 receptor on EL-4 membranes (Mus musculus, UniProt P13504).
T1 construct: incubated at varying concentrations with EL-4 membranes; endogenous in cells; host or cells: EL-4 cell membranes
T1 sequence (P13504 20-576): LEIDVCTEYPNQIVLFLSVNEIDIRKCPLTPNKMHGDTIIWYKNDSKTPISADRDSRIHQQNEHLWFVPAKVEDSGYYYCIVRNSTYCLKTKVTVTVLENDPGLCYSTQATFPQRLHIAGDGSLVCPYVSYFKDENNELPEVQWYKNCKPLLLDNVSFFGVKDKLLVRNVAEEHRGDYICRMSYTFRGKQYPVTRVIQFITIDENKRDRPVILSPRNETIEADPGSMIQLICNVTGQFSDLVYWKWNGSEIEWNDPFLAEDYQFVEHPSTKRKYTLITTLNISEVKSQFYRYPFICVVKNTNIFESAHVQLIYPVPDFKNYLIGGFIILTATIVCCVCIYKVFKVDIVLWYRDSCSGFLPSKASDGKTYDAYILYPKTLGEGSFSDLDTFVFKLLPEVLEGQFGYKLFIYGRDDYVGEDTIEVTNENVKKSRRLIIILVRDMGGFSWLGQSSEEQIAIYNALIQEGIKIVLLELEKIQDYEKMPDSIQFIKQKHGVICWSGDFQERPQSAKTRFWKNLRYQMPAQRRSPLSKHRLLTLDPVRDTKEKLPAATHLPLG
The data set is described as follows: IL-1 radioreceptor competition binding assay. The method, then:
Pegylated IL-1ra was purified from the reaction mixture using hydrophobic exchange chromatography (Bio-Rad; HRLC MP7 HlC). A linear gradient with decreasing salt concentrations from 0.43 to 0.0M (NH4)2 SO4 in 50 mM sodium phosphate pH 7.0 in 20 minutes was used to separate pegylated IL-1ra and unmodified IL-1ra. Aliquots of fractions were evaluated by SDS-PAGE and pooled fractions were assayed in an IL-1 radioreceptor competition binding assay. [Kilian et al. J. Immunol., 136, 4509, (1986)]. Briefly, IL-1ra and PEG-IL-1ra were incubated at varying concentrations with EL-4 membranes for 30 min at 37° C. The [^125 I]IL-1 alpha was then added and the incubation continued for 30 min. The assay was terminated by vacuum filtration and the collection of cell bound [^125 I]IL-1 on filter plates. The concentration of IL-1ra or PEG-IL-1ra that inhibits binding of [^125l]IL- 1 by 50% (IC50) was determined graphically. […] The pegylated IL-1ra mixture retained its ability-to bind to the IL-1 receptor on EL-4 membranes within a factor 2 to 3 fold relative to the unmodified II1-1ra.

Data set [2] relates to rIL-1alpha induction of interleukin-6. The data set is described as follows: Inhibition of rIL-1alpha induction of interleukin-6 in mice (pharmacodynamics). It is filed as in vivo. On the procedure:
The pharmacodynamics of IL-1ra protein was evaluated in vivo by the ability of the IL-1ra to inhibit rIL-1alpha induction of interleukin-6. Serum from mice treated with rIL-1alpha contain high levels of IL-6, [McIntosh et al., Immunol. 143: 162, (1989)]. The administration of unmodified IL-1ra together with IL-1alpha (0 hr time point) inhibits the induction of IL-6. This test system was used to compare the pharmacodynamic properties of unmodified and PEG IL-1ra. […] Three hours later, serum samples were collected. IL-6 levels (units) were determined using a modification of an IL-6 assay that has been previously described [Van Snick et al., Proc. Natl. Acad. Sci. USA 83:9679, (1986)]. In the IL.-6 assay, B9 hybridoma cells were treated with two fold serial dilutions of the test sera in 96-well microtiter plates. Following a 3 day incubation at 37° C. in a humidified atmosphere comprised of 5% CO2 and 95% air, the wells were pulsed with 0.5 uCi of tritiated thymidine and incubated for an additional 18 hr. The cells were then harvested onto glass fiber filters and the level of tritiated thymidine incorporation was determined by scintillation counting. IL-6 activity is expressed as U/ml. IL-6 units are defined as the inverse of the serum dilution which produces half-maximal tritiated thymidine incorporation compared to a reference standard.

For the next data set, the system named is MDBK. The data set is described as follows: Anti-viral activity (specific activity) in an MDBK assay. The class given is cell-based. Conditions: label = apparent molecular weight (kD). The method, then:
The predominant molecular weight species from the reaction mixture were identified by SDS-PAGE with apparent molecular weights of 15 (unmodified),and 28 kD. The 28 kD pegylated protein accounted for 40% of the, total protein. The pegylated IFN-alpha was purified from the 60 minute reaction mixture and characterized using hydrophobic exchange chromatography (Bio-Rad; Biogel-phenyl-S-PW). A linear gradient with decreasing salt concentrations from 0.42M to 0.0M (NH4)2 SO4 in 50 mM sodium phosphate pH 7.0 in 20 minutes was used to separate pegylated IFN-alpha and unmodified IFN-alpha. Aliquots of the fractions were evaluated by SDS-PAGE and pooled fractions were assayed for anti-viral activity (specific activity) in an MDBK assay by the method described in by Familletti, et al. [Methods Enzym. 78,387 (1987)].
Protein concentrations were determined spectrophotometrically at […] using an extinction coefficient of 1.0 for a 1 mg/ml IFN-alpha buffered solution.

In the next data set the test system is CTLL cell. The data set is described as follows: CTLL cell proliferation assay (specific activity of rIL-2). The class given is cell-based. Conditions: Example 3, Table III: rIL-2 conjugated to PEG with reagent of Example 1; label = apparent molecular weight (kD). The method, then: Acad. Sci., USA, 84:1483, (1987)] using hydrophic exchange chromatography (Bio-Rad; Biogel-phenyl 5-PW). […] Aliquots of the fractions were evaluated by SDS-PAGE and pooled fractions were assayed to determine its specific activity in a CTLL cell proliferation assay by the method described by Gillis et al. [J. Immunology 120:2027, (1978)].

Setting [3] is: Example 7, Table VIII: rIL-1 alpha conjugated with reagent of Example 5.

With “alpha-[2-[[(2-Pyridinyloxy)carbonyl]amino]ethyl]omega-[2-[[(2-pyridinyloxy)carbonyl]amino]-ethoxy]poly(oxy-1,2-ethanediyl) SRU 180 [Example 33]”, the “Specific Activity” value in the data set with D10 cell (setting [3]) is 4.5 × 10^6 units/mg. For the same molecule, the IC50 in data set [1] (Example 6A, Table VII: IL-1ra conjugated with reagent of Example 5a, label = apparent molecular weight (kD)) turned out to be 9.0 ng/mL; in data set [1] (Example 12A, Table XIII: IL-1ra pegylated with reagent of Example 11a, label = apparent molecular weight (kD)), 6.0 ng/mL; in data set [1] (Example 19, Table XIV: IL-1ra pegylated with reagent of Example 18, label = apparent molecular weight (kD)), 30.0 ng/mL; in data set [1] (Example 19A, Table XV: IL-1ra pegylated with reagent of Example 18a, label = apparent molecular weight (kD)) it was 9.0 ng/mL; in data set [1] (Example 29, Table XX: IL-1ra pegylated with reagent of Example 28, label = molecular weight (kD)), 5.0 ng/mL.
Turning to “rIL-1 alpha: Recombinant Interleukin 1-alpha, unmodified; apparent molecular weight 17 kD by SDS-PAGE”, the “Specific Activity” value with D10 cell (setting [3]) is reported as 4.6 × 10^7 units/mg; with D10 cell (Example 27, Table XIX: rIL-1 alpha conjugated to PEG with reagent of Example 23), 1.1 × 10^8 units/mg. Further, in the data set with D10 cell (general statement, Example 7), the “specific activity of the rIL-1 alpha” value is “approximately 1.0×10^8 units/mg”. In data set [2] (Example 6 experiment, 0.2 ug rIL-1 alpha, serum three hours later), the “IL-6 in mice treated only with IL-1” value stood at 28852 U/ml. In addition, in data set [2] (Example 12 experiment), the “IL-6 induced by IL-1 alone” value is recorded as 27283 u/ml. Besides, the “IL-6 response to IL-1 alone” value in data set [2] (Example 19A experiment, 0.05 ug rIL-1 alpha) worked out at 9203 units/ml.
Turning to “alpha-[(2-Pyridinyloxy)thiocarbonyl]-omega-methoxypoly (oxy-1,2-ethanediyl) SRU 225 [Example 28]”, the “Specific Activity” value with MDBK (Example 8, Table IX: IFN-alpha conjugated with reagent of Example 5) is 1.4 × 10^8 units/mg; in the data set with MDBK (Example 20, Table XVI: IFN-alpha conjugated with reagent of Example 18), 8.0 × 10^7 units/mg; with CTLL cell it was 2.4 × 10^7 units/mg. Besides, the IC50 in data set [1] (Example 12, Table XII: IL-1ra pegylated with reagent of Example 11, label = apparent molecular weight (kD)) worked out at 3.0 ng/mL.

B1: 26 kD rIL-1 alpha (Example 7): rIL-1 alpha pegylated with the reagent of Example 5; apparent molecular weight 26 kD (conjugate, UniProt P01583 113-271, looked up)
Interleukin-1 alpha: SAPFSFLSNVKYNFMRIIKYEFILNDALNQSIIRANDQYLTAAALHNLDEAVKFDMGAYKSSKDDAKITVILRISKTQLYVTAQDEDQPVLLKEMPEIPKTITGSETNLLFFWETHGTKNYFTSVAHPNLFIATKQDYWVCLAGGPPSITDFQILENQA
modifications: PEG conjugate
notes: apparent molecular weight 26 kD
B1: in the data set with D10 cell (Example 7), the “bioactivity relative to IL-1 alpha” value is 2-3 fold.

B2: 33 kD rIL-1 alpha (Example 7): rIL-1 alpha pegylated with the reagent of Example 5; apparent molecular weight 33 kD (conjugate, UniProt P01583 113-271, looked up)
Interleukin-1 alpha: SAPFSFLSNVKYNFMRIIKYEFILNDALNQSIIRANDQYLTAAALHNLDEAVKFDMGAYKSSKDDAKITVILRISKTQLYVTAQDEDQPVLLKEMPEIPKTITGSETNLLFFWETHGTKNYFTSVAHPNLFIATKQDYWVCLAGGPPSITDFQILENQA
modifications: PEG conjugate
notes: apparent molecular weight 33 kD
With B2, the “bioactivity relative to IL-1 alpha” value in the data set on D10 cell (Example 7) is on record as “substantial loss of bioactivity”.
